Test results reported in patent US4285932A, “Enzyme derivatives for use in the treatment of venous thrombosis” (Beecham Group Limited, priority 1978, dated 1981).

Columns and labels:
[1] = tested on: Porcine Plasmin; assay: Residual enzyme activity of blocked porcine plasmin versus original enzyme; format: biochemical; details: after acylation and dialysis
Description: The time for which the reaction is allowed to proceed depends upon the blocking reagent employed, the temperature at which the reaction is carried out and the enzyme selected for blocking. The optimum time period for any particular circumstances may be selected by following the decrease in enzymic activity by incubating aliquots with a chromogenic or fluorogenic substrate.

[2] = tested on: Porcine Plasmin; assay: Deacylation (hydrolysis) of active-site blocked porcine plasmin, pseudo-first order rate constant followed by regain of activity on chromogenic substrate; format: biochemical
Description: The pseudo-first order rate constant is determined by hydrolysing the enzyme derivative under physiological conditions i.e. in isotonic aqueous media at pH 7.4 and at 37° C. At regular intervals aliquots are withdrawn and incubated with a chromogenic or fluorogenic protease substrate such as S-2251 (H-D-Val-Leu-Lys-p-nitroanilide 2HCl) and the rate of conversion of the substrate measured.
The hydrolysis is followed until such time as the rate of conversion of substrate reaches a maximum. The rate constant k is then calculated by plotting: […]
loge (1-^At /Amax) against t
where Amax the maximum rate at which an aliquot converts substrate and At is the rate at which an aliquot converts substrate at time t.

B1: Trans-Cinnamoyl Porcine Plasmin (protein, UniProt P06867 20-579; P06867 580-809, looked up)
Plasmin heavy chain A: DSLDDYVNTQGAFLFSLSRKQVAARSVEECAAKCEAETNFICRAFQYHSKDQQCVVMAENSKTSPIARMRDVVLFEKRIYLSECKTGNGKNYRGTTSKTKSGVICQKWSVSSPHIPKYSPEKFPLAGLEENYCRNPDNDEKGPWCYTTDPETRFDYCDIPECEDECMHCSGEHYEGKISKTMSGIECQSWGSQSPHAHGYLPSKFPNKNLKMNYCRNPDGEPRPWCFTTDPNKRWEFCDIPRCTTPPPTSGPTYQCLKGRGENYRGTVSVTASGHTCQRWSAQSPHKHNRTPENFPCKNLEENYCRNPDGETAPWCYTTDSEVRWDYCKIPSCGSSTTSTEYLDAPVPPEQTPVAQDCYRGNGESYRGTSSTTITGRKCQSWVSMTPHRHEKTPGNFPNAGLTMNYCRNPDADKSPWCYTTDPRVRWEYCNLKKCSETEQQVTNFPAIAQVPSVEDLSEDCMFGNGKRYRGKRATTVAGVPCQEWAAQEPHRHSIFTPETNPRAGLEKNYCRNPDGDDNGPWCYTTNPQKLFDYCDVPQCVTSSFDCGKPKVEPKKCPAR
Plasmin light chain B: VVGGCVSIPHSWPWQISLRHRYGGHFCGGTLISPEWVLTAKHCLEKSSSPSSYKVILGAHEEYHLGEGVQEIDVSKLFKEPSEADIALLKLSSPAIITDKVIPACLPTPNYVVADRTACYITGWGETKGTYGAGLLKEARLPVIENKVCNRYEYLGGKVSPNELCAGHLAGGIDSCQGDSGGPLVCFEKDKYILQGVTSWGLGCALPNKPGVYVRVSRFVTWIEEIMRRN
modifications: plasmin trans-cinnamoyl acylated active site
notes: porcine plasmin acylated with p-amidinophenyl transcinnamate
- activity of the derivative relative to the original enzyme [1]: less than 0.5%
- Deacylation rate, Porcine Plasmin K sec^-1 × 10^4 ([2]; active site serine substituted porcine plasmin, pH 7.4, 37° C.): 4.20 sec^-1 × 10^4
- time for reactivation ([2]; deacylation conditions): two
